Here are results for one molecule from article PMC12162846, “Tripartite motif-containing protein 26 promotes colorectal cancer growth by inactivating p53” (Cell Death and Differentiation, 2025).

In the assay the target is T1, His-p53 (UniProt P04637 1-393).
T1 construct: p53; also called Purified p53; source: purified
Kind of assay: pull-down; GST-TRIM26 fragments on beads, incubated with His-p53 or His-MDM2 at RT for 40 min; bound protein detected by Western blot with His antibody. To be noted: both partners purified. (In general: In western blotting, separated proteins are transferred to a membrane and probed.)

T1 sequence (P04637 whole entry): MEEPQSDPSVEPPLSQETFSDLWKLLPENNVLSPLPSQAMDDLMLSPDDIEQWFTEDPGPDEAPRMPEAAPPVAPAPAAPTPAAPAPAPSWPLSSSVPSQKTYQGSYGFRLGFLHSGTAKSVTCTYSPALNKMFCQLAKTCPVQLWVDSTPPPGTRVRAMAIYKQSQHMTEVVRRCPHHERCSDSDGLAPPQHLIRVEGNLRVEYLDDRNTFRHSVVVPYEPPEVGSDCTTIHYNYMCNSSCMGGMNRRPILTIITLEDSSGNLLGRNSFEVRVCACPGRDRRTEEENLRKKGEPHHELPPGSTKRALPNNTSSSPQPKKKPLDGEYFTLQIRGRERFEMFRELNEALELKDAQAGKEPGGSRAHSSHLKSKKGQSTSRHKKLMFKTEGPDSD

B1: GST-TRIM26 C-terminal PRYSPRY domain (aa301-539) (domain or fragment, UniProt Q12899 301-539, looked up)
chain: QGKLLRDLEYKTVSVTLDPQSASGYLQLSEDWKCVTYTSLYKSAYLHPQQFDCEPGVLGSKGFTWGKVYWEVEVEREGWSEDEEEGDEEEEGEEEEEEEEAGYGDGYDDWETDEDEESLGDEEEEEEEEEEEVLESCMVGVARDSVKRKGDLSLRPEDGVWALRLSSSGIWANTSPEAELFPALRPRRVGIALDYEGGTVTFTNAESQELIYTFTATFTRRLVPFLWLKWPGTRLLLRP
notes: also called the C-terminal domain of TRIM26; source: purified GST-fusion protein on beads
For B1, the binding result is recorded as “binds”.
